Key:
Test in all cases: cell-based or functional assay
[1] = target: CD28 ligand B7-1 on mouse lymph node accessory cells (mouse) (UniProt Q00609)
[2] = target: CD28 ligand B7-2 on mouse lymph node accessory cells (mouse) (UniProt P42082)
[3] = target: Fas cell surface receptor (human) (UniProt P25445)
[4] = target: CD3 (TCR/CD3 complex) on Jurkat cells

Chain of UniProt Q00609 (Q00609 38-306): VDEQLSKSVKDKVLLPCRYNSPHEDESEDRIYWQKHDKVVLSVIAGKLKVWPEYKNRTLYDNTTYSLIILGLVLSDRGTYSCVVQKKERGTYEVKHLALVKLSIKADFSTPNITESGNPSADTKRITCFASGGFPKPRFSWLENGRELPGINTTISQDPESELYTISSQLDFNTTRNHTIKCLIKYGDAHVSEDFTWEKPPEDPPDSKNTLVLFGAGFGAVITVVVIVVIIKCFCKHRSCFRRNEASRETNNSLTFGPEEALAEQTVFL
Chain of UniProt P42082 (P42082 24-309): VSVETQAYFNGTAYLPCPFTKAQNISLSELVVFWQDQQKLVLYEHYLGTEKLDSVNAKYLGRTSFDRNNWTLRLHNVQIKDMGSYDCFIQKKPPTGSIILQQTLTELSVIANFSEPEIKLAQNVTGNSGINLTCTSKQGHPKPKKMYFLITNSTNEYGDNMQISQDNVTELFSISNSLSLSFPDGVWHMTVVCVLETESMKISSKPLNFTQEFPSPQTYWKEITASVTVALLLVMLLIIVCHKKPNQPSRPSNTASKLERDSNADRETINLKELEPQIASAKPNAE
Chain of UniProt P25445 (P25445 26-335): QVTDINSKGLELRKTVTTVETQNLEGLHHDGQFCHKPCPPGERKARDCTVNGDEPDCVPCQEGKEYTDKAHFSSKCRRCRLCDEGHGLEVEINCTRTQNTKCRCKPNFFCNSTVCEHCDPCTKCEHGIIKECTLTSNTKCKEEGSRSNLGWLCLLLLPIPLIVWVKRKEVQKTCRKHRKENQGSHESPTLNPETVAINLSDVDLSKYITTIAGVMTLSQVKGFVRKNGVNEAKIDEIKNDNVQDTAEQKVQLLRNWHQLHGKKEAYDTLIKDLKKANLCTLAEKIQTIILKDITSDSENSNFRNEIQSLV

CTLA4Ig (from Repligen) (Fc fusion)
viability of activated Thy-1 positive T cells at 72 hrs [1]: 20%
viability of activated Thy-1 positive T cells at 72 hrs [2]: 20%

CH-11 anti-Fas monoclonal antibody (Panvera)
viability (propidium iodide exclusion) of control (Neo) Jurkat transfectants treated with Fas antibody at 10 ng/ml [3]: < 10%

anti-CD3 (OKT3) (antibody)
cell death of Neo Jurkat clones treated with plate bound anti-CD3 (propidium iodide exclusion) [4]: 30 to 60%

— patent EP0826043B1
